These results are taken from patent US20250171542A1 (ADEPT THERAPEUTICS, published 2025).

B1: 74F4 (antibody, human IgG1, V domains shown)
VH: QEQLEESGGGLVQPEGSLTLTCTASGFSFSGDYYMSWVRQAPGKGLEWIASIYTGSLNTYYATWAKGRFTISLTSSTTVTLQMTSLTAADTATYFCARRNKNADYGHFDLWGPGTLVTVSS
VL: YDMTQTPASVEVAVGGTVTIKCQASQSINDRLAWYQQSPGQPPKLLIYGASTLASGVPSRFKGSGSGTDFTLTISDLECADAATYYCQQGWTVSSLDNAFGGGTEVVAK
B2: 56E5 (antibody, human IgG1, V domains shown)
VH: B1 VH with N100H
VL: B1 VL with A8G, S38T, D69E
B3: 55H3/76D6 (antibody, human IgG1, V domains shown)
VH: B1 VH with A24V, I49V, T59S
VL: B1 VL with Q26E, S38K, G49A, K62R, K109M
B4: 27A2 (antibody, human IgG1, V domains shown)
VH: QEQLEESGGGLVQPEGSLTLTCTASGFSFSSNHYMSWVRQAPGKGLEWIGSIGVGSGITDYASWAKGRFTISKASSTTLTLQMTTLTAADTAIYFCARWTSGGGGFGLWGPGTLVTVSS
VL: QVLTQTSSPVSAAVGGTVTINCQSSQTIYSDYLFWYQQTPGQPPKLLIYQTSTLASGVPSRFKGSGSGTEFTLTISEIQCDDAATYYCQGYYSGYIWTFGGGTEVVVR
B5: 56H3 (antibody, human IgG1, V domains shown)
VH: B4 VH with E5V, G26E, S31N, H33Y, I49L, V54I, L79V
VL: B4 VL with T39K, K63S, E70Q, E77G, I78V, R108N

Substitutions are numbered along the chain they refer to.

T1 sequence (D4AE25 entry or part of it R08H R08H limits assumed): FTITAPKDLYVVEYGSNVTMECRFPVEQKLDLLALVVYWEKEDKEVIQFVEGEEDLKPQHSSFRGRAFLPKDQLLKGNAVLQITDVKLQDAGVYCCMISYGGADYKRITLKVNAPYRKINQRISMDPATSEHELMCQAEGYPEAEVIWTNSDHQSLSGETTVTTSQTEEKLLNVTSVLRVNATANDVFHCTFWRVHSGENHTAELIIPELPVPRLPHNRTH

For one test, the target named is mouse PD-L1 (Sino Biological, Cat #50010-M08H) (mouse, UniProt Q9EP73 19-238). The test is described as follows: ELISA.
Chain of mouse PD-L1 (Sino Biological, Cat #50010-M08H) (Q9EP73 19-238 limits assumed, stated change not applied): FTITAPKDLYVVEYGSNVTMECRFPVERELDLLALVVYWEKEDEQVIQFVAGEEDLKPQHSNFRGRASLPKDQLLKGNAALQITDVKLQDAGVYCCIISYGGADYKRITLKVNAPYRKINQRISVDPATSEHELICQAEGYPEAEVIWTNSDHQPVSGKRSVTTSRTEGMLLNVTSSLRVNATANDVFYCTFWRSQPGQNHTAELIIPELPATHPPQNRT
Turning to B1, the binding result is given as “no binding”.
Still for that read-out and setting: then B2, with “no binding”; and B3, with “no binding”; and B4, with “no binding”.
Same read-out and setting: the entry for B5 is “no binding”.

Another test has as its target T1, rat PD-L1 (Sino Biological, Cat #80450-R08H) (rat, UniProt D4AE25 19-239).
T1 construct: not shown: The vendor's polyhistidine tag
The test is described as follows: ELISA. (An ELISA detects its analyte on a solid surface through an enzyme-linked reagent.)
On to B1, for which the binding result is given as “no binding”.
On the same count and under the same terms, the entry for B2 is “no binding”; for B3 it is “no binding”.
On the same count and under the same terms, the entry for B4 is “no binding”; for B5 it is “no binding”.

The target in the next test is T2, canine PD-L1 (Acro Biosystems, Cat #PDL-C52H4) (canine, UniProt E2RKZ5 19-236).
T2 construct: not shown: The vendor's tag, probably a polyhistidine tag
T2 sequence: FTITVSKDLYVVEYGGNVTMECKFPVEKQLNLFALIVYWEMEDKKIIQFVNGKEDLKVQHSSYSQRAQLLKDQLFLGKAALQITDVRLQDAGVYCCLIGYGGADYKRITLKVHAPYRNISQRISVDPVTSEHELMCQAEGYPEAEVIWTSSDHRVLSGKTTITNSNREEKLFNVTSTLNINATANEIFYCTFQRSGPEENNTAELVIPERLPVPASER
Nature of the test: ELISA.
For B1, the binding result is “no binding”.
Still for that read-out and setting: then B2, with “no binding”; and B3, with “no binding”; and B4, with “no binding”.
Same read-out and setting: then B5, with “no binding”.

The target of another test is T3, CD80 (Sino Biological, Cat #10698-H08H) (UniProt P33681 35-242).
T3 sequence (looked up): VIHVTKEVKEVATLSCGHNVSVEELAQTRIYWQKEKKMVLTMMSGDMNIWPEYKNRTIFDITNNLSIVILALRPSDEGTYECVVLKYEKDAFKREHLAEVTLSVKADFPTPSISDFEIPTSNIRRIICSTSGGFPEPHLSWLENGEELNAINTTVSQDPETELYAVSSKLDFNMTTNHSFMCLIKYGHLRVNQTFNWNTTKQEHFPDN
Nature of the test: ELISA.
Take B1: the binding result was “no binding”.
In the case of B2, the binding result is listed as “no binding”.
On the same count and under the same terms, the entry for B3 is “no binding”; for B4 it is “no binding”; for B5 it is “no binding”.

Another test has as its target T4, CD86 (Sino Biological, Cat #10699-H08H) (UniProt P42081 24-245).
T4 sequence (looked up): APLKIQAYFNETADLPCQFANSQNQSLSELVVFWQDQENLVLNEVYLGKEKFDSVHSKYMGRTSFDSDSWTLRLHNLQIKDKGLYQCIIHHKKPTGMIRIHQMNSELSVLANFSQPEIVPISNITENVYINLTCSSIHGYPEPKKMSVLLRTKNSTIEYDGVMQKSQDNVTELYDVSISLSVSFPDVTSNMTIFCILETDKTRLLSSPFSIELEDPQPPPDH
Nature of the test: ELISA.
B1: the binding result is listed as “no binding”.
Still for that read-out and setting: then B2, with “no binding”.
On the same count and under the same terms, the entry for B3 is “no binding”; for B4 it is “no binding”.
On the same count and under the same terms, then B5, with “no binding”.

The next test has as its target T5, BH-H2 (Sino Biological, Cat #11559-H08H) (UniProt O75144 19-258).
T5 sequence (looked up): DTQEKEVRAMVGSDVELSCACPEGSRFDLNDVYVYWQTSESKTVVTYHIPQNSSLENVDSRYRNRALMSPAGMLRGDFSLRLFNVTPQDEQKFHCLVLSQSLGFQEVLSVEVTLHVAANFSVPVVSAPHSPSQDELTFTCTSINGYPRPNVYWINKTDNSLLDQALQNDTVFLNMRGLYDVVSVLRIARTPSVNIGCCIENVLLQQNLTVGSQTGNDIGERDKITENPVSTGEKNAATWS
The test is described as follows: ELISA.
B1: the binding result was “no binding”.
Still for that read-out and setting: then B2, with “no binding”; and B3, with “no binding”; and B4, with “no binding”.
Still for that read-out and setting: then B5, with “no binding”.

Another test deals with T6, B7-H3 (Sino Biological, Cat #11188-H08H) (UniProt Q5ZPR3 29-461).
T6 sequence (looked up): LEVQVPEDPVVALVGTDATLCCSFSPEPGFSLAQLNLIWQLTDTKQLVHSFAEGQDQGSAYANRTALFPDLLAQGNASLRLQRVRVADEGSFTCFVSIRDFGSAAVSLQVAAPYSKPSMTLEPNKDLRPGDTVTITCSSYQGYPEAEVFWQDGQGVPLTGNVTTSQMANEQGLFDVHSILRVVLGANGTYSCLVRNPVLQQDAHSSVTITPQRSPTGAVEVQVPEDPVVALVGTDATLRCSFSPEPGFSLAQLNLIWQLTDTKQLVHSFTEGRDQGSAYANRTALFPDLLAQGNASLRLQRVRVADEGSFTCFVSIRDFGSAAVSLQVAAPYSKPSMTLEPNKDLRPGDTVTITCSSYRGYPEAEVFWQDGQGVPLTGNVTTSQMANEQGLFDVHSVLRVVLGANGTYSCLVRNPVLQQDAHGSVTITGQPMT
The test is described as follows: ELISA.
B1: the binding result is on record as “no binding”.
On the same count and under the same terms, the entry for B2 is “no binding”.
On the same count and under the same terms, the entry for B3 is “no binding”; for B4 it is “no binding”; for B5 it is “no binding”.

Another test deals with T7, PD-L2 (Sino Biological, Cat #10292-H08H) (UniProt Q9BQ51 20-219).
T7 sequence (looked up): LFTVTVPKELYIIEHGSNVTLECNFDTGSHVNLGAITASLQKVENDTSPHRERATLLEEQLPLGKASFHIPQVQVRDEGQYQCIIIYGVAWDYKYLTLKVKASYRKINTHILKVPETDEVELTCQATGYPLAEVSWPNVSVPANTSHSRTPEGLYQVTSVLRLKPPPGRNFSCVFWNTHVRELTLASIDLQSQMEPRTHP
The test is described as follows: ELISA.
For the molecule B1, the binding result is “no binding”.
Still for that read-out and setting: the entry for B2 is “no binding”; for B3 it is “no binding”; for B4 it is “no binding”.
The same measure, in the same setting: then B5, with “no binding”.

The target in the next test is T8, human PD-L1 expressed on cell surface (human, UniProt Q9NZQ7 19-290). The test is described as follows: cell-based or functional assay.
T8 sequence (Q9NZQ7 19-290 limits assumed): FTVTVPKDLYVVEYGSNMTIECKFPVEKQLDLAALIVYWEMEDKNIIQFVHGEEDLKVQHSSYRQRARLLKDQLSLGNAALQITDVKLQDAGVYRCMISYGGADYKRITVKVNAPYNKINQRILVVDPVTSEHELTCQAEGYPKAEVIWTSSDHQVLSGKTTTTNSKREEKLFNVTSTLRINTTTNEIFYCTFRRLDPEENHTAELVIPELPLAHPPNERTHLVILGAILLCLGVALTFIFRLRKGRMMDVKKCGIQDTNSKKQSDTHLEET
B1: the “Internalization (%), FACS, 0.25 µg/ml, 2 h” value is 19%; the “Internalization (%), FACS, 0.25 µg/ml, 4 h” value stood at 15.3%; the “Internalization (%), FACS, 0.5 µg/ml, 2 h” value came out at 22.5%; the “Internalization (%), FACS, 0.5 µg/ml, 4 h” value came out at 15.7%. Also, the “Internalization (%), FACS, 1 µg/ml, 2 h” value is 19.5%; the “Internalization (%), FACS, 1 µg/ml, 4 h” value turned out to be 18.2%; the “Internalization (%), FACS, 2 µg/ml, 2 h” value was 24.1%; the “Internalization (%), FACS, 2 µg/ml, 4 h” value worked out at 22%.
As to B2, the “Internalization (%), FACS, 0.25 µg/ml, 2 h” value is 22.9%; the “Internalization (%), FACS, 0.25 µg/ml, 4 h” value was found to be 22.1%; the “Internalization (%), FACS, 0.5 µg/ml, 2 h” value stood at 20.7%; the “Internalization (%), FACS, 0.5 µg/ml, 4 h” value is 19.8%. Moreover, the “Internalization (%), FACS, 1 µg/ml, 2 h” value amounted to 23.8%; the “Internalization (%), FACS, 1 µg/ml, 4 h” value came out at 20.6%; the “Internalization (%), FACS, 2 µg/ml, 2 h” value came to 24.7%; the “Internalization (%), FACS, 2 µg/ml, 4 h” value is 26.5%.
In the case of B3, the “Internalization (%), FACS, 0.25 µg/ml, 2 h” value was 22.9%; the “Internalization (%), FACS, 0.25 µg/ml, 4 h” value turned out to be 20.6%; the “Internalization (%), FACS, 0.5 µg/ml, 2 h” value came to 20.8%; the “Internalization (%), FACS, 0.5 µg/ml, 4 h” value is 19.9%. Moreover, the “Internalization (%), FACS, 1 µg/ml, 2 h” value stood at 22.1%; the “Internalization (%), FACS, 1 µg/ml, 4 h” value was 17.9%; the “Internalization (%), FACS, 2 µg/ml, 2 h” value came to 24.2%; the “Internalization (%), FACS, 2 µg/ml, 4 h” value is 22.2%.
For the molecule B4, the “Internalization (%), FACS, 0.25 µg/ml, 2 h” value was found to be 18.5%; the “Internalization (%), FACS, 0.25 µg/ml, 4 h” value worked out at 18.3%; the “Internalization (%), FACS, 0.5 µg/ml, 2 h” value was determined as 15.5%; the “Internalization (%), FACS, 0.5 µg/ml, 4 h” value amounted to 14.7%. For the same molecule, the “Internalization (%), FACS, 1 µg/ml, 2 h” value was determined as 13.7%; the “Internalization (%), FACS, 1 µg/ml, 4 h” value was 13.7%; the “Internalization (%), FACS, 2 µg/ml, 2 h” value came out at 12.7%; the “Internalization (%), FACS, 2 µg/ml, 4 h” value is 9.7%.
For the molecule B5, the “Internalization (%), FACS, 0.25 µg/ml, 2 h” value was found to be 16.3%; the “Internalization (%), FACS, 0.25 µg/ml, 4 h” value is 16%; the “Internalization (%), FACS, 0.5 µg/ml, 2 h” value was found to be 16.1%; the “Internalization (%), FACS, 0.5 µg/ml, 4 h” value came out at 19%. Further, the “Internalization (%), FACS, 1 µg/ml, 2 h” value was determined as 15.3%; the “Internalization (%), FACS, 1 µg/ml, 4 h” value was 9.1%; the “Internalization (%), FACS, 2 µg/ml, 2 h” value was 6.5%; the “Internalization (%), FACS, 2 µg/ml, 4 h” value amounted to 4.8%.

For a further test, the target named is T8, human PD-L1 expressed on cell surface. The test is described as follows: flow cytometry, MDA-MB-231-GFP cells. How it is done:
Cells were then resuspended in FACS buffer (1×DPBS/1% FBS) at 10⁶/ml concentration. One hundred microliter (100 μl) of cells were aliquoted into a single well in 96 well plates. The antibodies to be tested were serially diluted at 1:3 fold starting at 15 ug/mL and were then added into each well. The antibodies were mixed with cells and the mixtures were incubated on ice for 1 hour. […] After washing with FACS buffer, stained cells were resuspended at diluted […] (Biolegend, Cat #420404, used at 1:100 dilution) and analyzed on Guava 11HT (Luminex). Data was analyzed using Flowjo software.
Anti-HEL isotype control (Biolntron) was used as negative control.
What is called EC50 is the concentration giving half of the maximal effect. A higher EC50 goes with weaker potency. Take B1: the EC50 is 1.44 nM.
Still for that read-out and setting: then B2, with 1.29 nM.
On the same count and under the same terms, then B3, with 2.93 nM.
On the same count and under the same terms, the figure for B4 is 0.14 nM.
The molecule B5 had an EC50 of 0.19 nM. The EC50 values of the last two molecules are within 1.5-fold of each other.
